Literature values in article PMC9303997.

Experiments:
[1] = biological target: spastin MIT (Homo sapiens) (UniProt Q9UBP0)
VPS4B MIT (Homo sapiens) = VPS4B MIT (Homo sapiens) (UniProt O75351)
VPS4B MIT (Homo sapiens), sequence (O75351 1-85): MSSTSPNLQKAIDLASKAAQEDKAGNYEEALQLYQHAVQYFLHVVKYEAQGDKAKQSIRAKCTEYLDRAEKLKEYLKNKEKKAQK

spastin MIT (Homo sapiens), sequence (Q9UBP0 117-198): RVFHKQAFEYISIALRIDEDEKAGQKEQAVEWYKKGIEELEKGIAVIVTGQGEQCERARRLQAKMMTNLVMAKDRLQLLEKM

- Kd [1]: 0.5 nM
- Kd (VPS4B MIT (Homo sapiens)): 12 nM
Substance: IST1 MIM (from UniProt P53990)
